Residue numbers refer to the chain shown, from its start. Names and notes keep the numbering of the source. Where no end group is shown, it is not given here. The star is where a group is joined. Biotin = O=C1N[C@H]2[C@H](CS[C@H]2CCCCC(=O)*)N1
T1: peptide 21 (PfCSP residues 101-115) (Plasmodium falciparum)
T1 chain: NPDPNANPNVDPNAN

T2: Biotinylated junctional peptide NPDP19 (Plasmodium falciparum NF54/3D7)
T2 chain: Biotin-KQPADGNPDPNANPNVDPN

T3: peptide NANP5, biotinylated (Plasmodium falciparum, biotin (position not given))
T3 chain: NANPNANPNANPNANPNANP

T4: peptide 21, biotinylated (Plasmodium falciparum NF54/3D7, also: biotin, position not given here)
T4 chain: NPDPNANPNVDPNAN

B1: iGL-CIS43.D3 Fab (Fab, V domains shown)
VH: QVHLVQSGAEVKKPGASVKVSCKASGYTFTRYAIHWVRQAPGQRLEWMGWIKGGNGNTRYSQKFQDRVTITRDTSASTAYMELSSLRSEDTAVYYCALLTVITPDDAFDIWGQGTMVTVSS
VL: not shown
B2: iGL-CIS43-HL.K28.m43.151 Fab (Fab, V domains shown)
VH: B1 VH with R31S
VL: not shown
B3: iGL-CIS43-HL.K28.m42.127 Fab (Fab, V domains shown)
VH: B1 VH with H3Q, R31S, G53A, A107T
VL: not shown
B4: iGL_Core8 with the reversion I34M in the heavy chain (antibody, V domains shown)
VH: B1 VH with H3Q, R31S, I34M, G53A, D66G
VL: not shown
B5: iGL_Core8 with the reversion K52N in the heavy chain (antibody, V domains shown)
VH: B1 VH with H3Q, R31S, K52N, G53A, D66G
VL: not shown
B6: iGL_Core8 with the reversion I98V in the heavy chain (antibody, V domains shown)
VH: B1 VH with H3Q, R31S, G53A, D66G, I102V
VL: not shown
B7: mature CIS43 Fab (Fab, V domains shown)
VH: B1 VH with H3Q, R31S, G53A, A76T, S77T, I102L
VL: not shown
B8: iGL_Core8 with the reversion R58K in the heavy chain (antibody, V domains shown)
VH: B1 VH with H3Q, R31S, G53A, R59K, D66G
VL: not shown
B9: iGL_Core8 with the reversion S94T in the light chain (antibody, V domains shown)
VH: B1 VH with H3Q, R31S, G53A, D66G
VL: not shown

How the values were obtained:
[1] = molecular target: T1, peptide 21 (PfCSP residues 101-115); experiment: crystal structure
[2] = molecular target: T2, Biotinylated junctional peptide NPDP19; experiment: BLI
[3] = molecular target: T2, Biotinylated junctional peptide NPDP19; experiment: AlphaScreen or HTRF
[4] = molecular target: T3, peptide NANP5, biotinylated; experiment: BLI
[5] = molecular target: T4, peptide 21, biotinylated; experiment: BLI

Binder | binding result [1] | binding result [3] | also measured
B1 | binds |  | Kd [2]: 1.01 nM
B2 | binds |  | 
B3 | binds |  | 
B4 |  | binds | 
B5 |  | binds | 
B6 |  | binds | 
B7 |  |  | binding result [4]: binds; binding result [5]: binds
B8 |  | binds | 
B9 |  | binds | 
